According to PMC11349758:

Columns and labels:
STAT5B = STAT5B (UniProt P42232); experiment: anti-STAT5A IP, anti-STAT5B blot; settings: reference: WT T cells, IL-2 stimulated; sites Y694
STAT5A = STAT5A (UniProt P42230); experiment: anti-STAT5A IP, anti-STAT5B blot; settings: reference: WT T cells, IL-2 stimulated; sites Y699

Row | binding against the reference (STAT5B) | binding against the reference (STAT5A) | Substance
1 | lost |  | STAT5A (from UniProt P42230) Stat5a KI (Y694F) T cells, IL-2 stimulated
2 |  | lost | STAT5B (from UniProt P42232) Stat5b KI (Y699F) T cells, IL-2 stimulated
